Legend:
phospho-specific blot = conditions: glycan lost; control: WT TAB3
[1] = Flag IP, pThr404 TAB3 blot; conditions: glycan lost; control: WT TAB3, IL-1β treated

B1: TAK1 binding protein 3 (TAB3): S408A (protein)
parent chain: MAQSSPQLDIQVLHDLRQRFPEIPEGVVSQCMLQNNNNLEACCRALSQESSKYLYMEYHSPDDNRMNRNRLLHINLGIHSPSSYHPGDGAQLNGGRTLVHSSSDGHIDPQHAAGKQLICLVQEPHSAPAVVAATPNYNPFFMNEQNRSAATPPSQPPQQPSSMQTGMNPSAMQGPSPPPPPPSYMHIPRYSTNPITVTVSQNLPSGQTVPRALQILPQIPSNLYGSPGSIYIRQTSQSSSGRQTPQSTPWQSSPQGPVPHYSQRPLPVYPHQQNYQPSQYSPKQQQIPQSAYHSPPPSQCPSPFSSPQHQVQPSQLGHIFMPPSPSTTPPHPYQQGPPSYQKQGSHSVAYLPYTASSLSKGSMKKIEITVEPSQRPGTAINRSPSPISNQPSPRNQHSLYTATTPPSSSPSRGISSQPKPPFSVNPVYITYTQPTGPSCTPSPSPRVIPNPTTVFKITVGRATTENLLNLVDQEERSAAPEPIQPISVIPGSGGEKGSHKYQRSSSSGSDDYAYTQALLLHQRARMERLAKQLKLEKEELERLKSEVNGMEHDLMQRRLRRVSCTTAIPTPEEMTRLRSMNRQLQINVDCTLKEVDLLQSRGNFDPKAMNNFYDNIEPGPVVPPKPSKKDSSDPCTIERKARRISVTSKVQADIHDTQAAAADEHRTGSTQSPRTQPRDEDYEGAPWNCDSCTFLNHPALNRCEQCEMPRYT
other: TAB3 S60 and S506 phosphorylation (phospho-specific blot): no change
other: TAB3 Thr404 phosphorylation [1]: decreases

— publication PMC5008402
